# Data as given in US20160009819A1 (SHIONOGI, published 2016).
# T1: mouse EL with C2 tag (mouse, UniProt Q9WVG5 21-500)
# T1 construct: Heparin extract of transfected HEK293F cells; also called mouse E1; not shown: C2 tag
# T1 sequence (looked up): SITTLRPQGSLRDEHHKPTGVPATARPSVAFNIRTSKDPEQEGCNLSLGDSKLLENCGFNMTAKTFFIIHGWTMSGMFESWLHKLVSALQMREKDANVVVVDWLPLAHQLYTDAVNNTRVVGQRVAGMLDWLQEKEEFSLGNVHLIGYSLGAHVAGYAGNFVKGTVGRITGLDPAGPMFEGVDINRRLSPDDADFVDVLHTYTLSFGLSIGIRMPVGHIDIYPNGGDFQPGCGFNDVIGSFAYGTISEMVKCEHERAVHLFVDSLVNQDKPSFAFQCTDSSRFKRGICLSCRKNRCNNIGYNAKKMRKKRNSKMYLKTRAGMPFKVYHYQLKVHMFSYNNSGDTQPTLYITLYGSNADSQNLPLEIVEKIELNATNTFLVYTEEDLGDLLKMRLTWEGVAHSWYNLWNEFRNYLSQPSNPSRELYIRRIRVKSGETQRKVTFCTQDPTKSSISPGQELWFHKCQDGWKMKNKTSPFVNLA
# T2: human [1-305]-mouse chimeric EL with C2 tag (human; mouse, UniProt Q9WVG5 306-500)
# T2 construct: Heparin extract of transfected HEK293F cells; probably 97; Built here from the name of the chimera; not shown: C2 tag
# T2 sequence: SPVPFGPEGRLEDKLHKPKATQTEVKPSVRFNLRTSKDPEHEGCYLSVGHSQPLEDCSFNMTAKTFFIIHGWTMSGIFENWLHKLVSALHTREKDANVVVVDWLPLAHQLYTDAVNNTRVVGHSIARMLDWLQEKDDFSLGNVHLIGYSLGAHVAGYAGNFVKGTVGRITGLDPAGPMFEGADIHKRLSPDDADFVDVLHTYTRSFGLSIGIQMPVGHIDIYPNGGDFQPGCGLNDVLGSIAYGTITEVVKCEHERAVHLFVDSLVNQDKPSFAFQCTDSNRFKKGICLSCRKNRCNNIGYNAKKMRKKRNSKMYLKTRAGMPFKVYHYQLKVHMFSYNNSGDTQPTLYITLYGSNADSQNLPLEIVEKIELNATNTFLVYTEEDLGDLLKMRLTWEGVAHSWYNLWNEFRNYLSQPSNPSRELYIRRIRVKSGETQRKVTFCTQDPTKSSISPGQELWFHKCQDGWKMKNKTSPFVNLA
# T3: baboon EL (vascular endothelial lipase) with C2 tag (baboon, UniProt Q9Y5X9 21-500 (human entry), limits assumed)
# T3 construct: also called baboon EL-C2 tag
# T3 chain: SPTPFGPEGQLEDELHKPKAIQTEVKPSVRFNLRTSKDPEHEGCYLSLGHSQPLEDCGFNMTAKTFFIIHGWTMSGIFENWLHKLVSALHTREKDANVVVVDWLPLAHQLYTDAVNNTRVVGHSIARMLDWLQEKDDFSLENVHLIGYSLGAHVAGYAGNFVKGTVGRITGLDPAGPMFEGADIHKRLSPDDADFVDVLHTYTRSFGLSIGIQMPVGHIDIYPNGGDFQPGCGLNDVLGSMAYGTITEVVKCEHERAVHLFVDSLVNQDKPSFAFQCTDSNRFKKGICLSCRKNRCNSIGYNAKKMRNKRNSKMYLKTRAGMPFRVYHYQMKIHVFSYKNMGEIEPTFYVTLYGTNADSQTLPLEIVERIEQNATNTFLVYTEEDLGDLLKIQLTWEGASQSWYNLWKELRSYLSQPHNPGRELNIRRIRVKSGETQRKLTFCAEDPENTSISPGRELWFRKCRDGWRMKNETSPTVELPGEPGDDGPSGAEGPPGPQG
# T4: human [1-157]-mouse chimeric EL with C2 tag (human; mouse, UniProt Q9WVG5 158-500)
# T4 construct: Heparin extract of transfected HEK293F cells; shifted by one: 4); Built here from the name of the chimera; not shown: C2 tag
# T4 sequence: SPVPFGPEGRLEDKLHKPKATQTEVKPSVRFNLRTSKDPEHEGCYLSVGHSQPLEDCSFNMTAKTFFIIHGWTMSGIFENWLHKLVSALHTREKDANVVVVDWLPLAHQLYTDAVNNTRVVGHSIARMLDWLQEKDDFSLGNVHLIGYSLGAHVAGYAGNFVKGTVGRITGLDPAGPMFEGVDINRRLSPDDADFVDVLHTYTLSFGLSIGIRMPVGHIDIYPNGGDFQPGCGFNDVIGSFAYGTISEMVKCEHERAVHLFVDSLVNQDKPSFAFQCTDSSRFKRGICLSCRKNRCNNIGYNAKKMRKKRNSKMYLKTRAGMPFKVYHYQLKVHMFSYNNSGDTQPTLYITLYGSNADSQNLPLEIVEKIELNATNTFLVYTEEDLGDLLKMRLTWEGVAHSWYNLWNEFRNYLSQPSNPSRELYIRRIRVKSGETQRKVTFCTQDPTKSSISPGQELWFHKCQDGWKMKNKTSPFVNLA
# Key:
# mouse EL with C2 tag = target: T1, mouse EL with C2 tag; test: ELISA: antibody captured on anti-mouse IgG-Fc plate, C2-tagged EL heparin extract added, anti-C2-tag detection, A450 (Example 8)
# Description: (§1) Assay buffer containing 15 μl of anti-EL antibody was added to anti-mouse IgG-Fc antibody-immobilized microtiter plate, and incubated for 2 hr. […] After washing the wells three times with 90 μL, of washing buffer, 15 μl of assay buffer containing biotin-labeled anti-C2-tag antibody and HRP-labeled Streptavidin were added to the wells and incubated at room temperature for 1 hr. After washing the wells three times with 90 μL of washing buffer, 15 μL of TMB+-Substrate-Chromogen (DAKO) was added and incubated at room temperature for 30 min and then 15 μL of 0.05 M H2SO₄ was added and absorbance at 450 nm was measured (FIG. 3A-3K).
# [1] = target: T2, human [1-305]-mouse chimeric EL with C2 …; test: SPR (Biacore), EL captured by anti-C2-tag antibody on CM5 chip, antibody injected, bivalent fit
# Description: (§2) The binding affinities of anti-EL antibodies were measured using Biacore. […] Then, anti-EL antibodies were added and the binding affinities were calculated by bivalent fitting of BIAevaluation software.
# [2] = target: T3, baboon EL (vascular endothelial lipase) …; test: ELISA: antibody captured on anti-mouse IgG-Fc plate, C2-tagged EL heparin extract added, anti-C2-tag detection, A450 (Example 8)
# Description: as §1
# [3] = target: T3, baboon EL (vascular endothelial lipase) …; test: SPR (Biacore), EL captured by anti-C2-tag antibody on CM5 chip, antibody injected, bivalent fit
# Description: as §2
# [4] = target: T4, human [1-157]-mouse chimeric EL with C2 …; test: ELISA: antibody captured on anti-mouse IgG-Fc plate, C2-tagged EL heparin extract added, anti-C2-tag detection, A450 (Example 8)
# Description: as §1
binding result (mouse EL with C2 tag),Binder,other results
no binding (tested: about 300 ng/mL),"16B3 antibody (antibody, V domains shown, Mouse hybridoma antibody, IgG2a) VH: DVKLVESGGGLVQPGGSLKLSCTASGFTFSGYTMSWVRQTPEKRLELVAEISFARDRAFYPDTVKGRFTISRDNAKNTLYLQMSSLKSEDTAMYYCTRLGGRNHDYWYFDVWGTGTTVTVSS VL: DIVLTQSPTSLAVSPGQRATISCRASESVEYYGTSLMQWYQQKPGQRPQLLIYAASNVESGVPARFSGSGSGTDFSLNIHPVEEDDIAVYFCQQSWKVPFTFGSGTKLEIK",–
–,"16E7 antibody (antibody, V domains shown, Mouse hybridoma antibody, IgG1) VH: EVKLVESGGGLVQPGGSLKLSCAASGFTFSSYTMSWVRQTPEKRLELVAEISFTRSRAFYPDTVKGRFTISRDNAKNTLYLQMSSLKSEDTAMYYCARLGGNNYDYWYFDVWGTGTTVTVSS VL: DIVLTQSPTSLAVSLGQRATISCRASESVEYYGTSLMQWYQQKPGQRPKLLIYAASNVESGVPARFSGSGSGTDFSLNIHPVEEDDIAMYFCQQSWKVPFTFGSGTKLEIK",kon [1]: 950000 M⁻¹ s⁻¹; EC50 (read off the curve) [2]: ~10 ng/mL
no binding (tested: about 300 ng/mL),"13B3 antibody (antibody, V domains shown, Mouse hybridoma antibody, IgG2a) VH: EVQLQQSGPELLKPGASVKISCKASGYTFTEYTMHWVKQSHGKSLEWIGSINPYYGGTSYNEKFKDKATLTVDKSSNTAYMEFRSLTSEDCAVYYCARYGNYVGYFDYWGQGTTLTVSS VL: ENVLTQSPAIMSASLGEKVTMSCRASSSVHYMYWYQQKSDASPKLWIYYTSNLAPGVPDRFSGSGSGNSYSLTISSMEGEDAATYYCQQFTSSPYTFGGGTKLEIK",–
no binding (tested: about 300 ng/mL),"19E7 antibody (antibody, V domains shown, Mouse hybridoma antibody, IgG2a) VH: QVQLQQPGSVLVRPGASVKLSCKASGYTFTTYWMHWVKQRPGQGLEWIGEIHPYSGNNNNNEKFKGKATLTVDTSSSTAYVDLSRLTSEDSAVYYCARYDSNYVFAYWGQGTLVTVSA VL: QIVLTQSPAIMSASPGEGVTITCSASSSVSYMHWFQQKPGTSPKLWIYSTSNLASGVPARFSGSGSGTSYSLTISRMEAEDAATYYCQQRDSYLTFGSGTKLEVK",kon [3]: 67000 M⁻¹ s⁻¹; binding result [4]: no binding (tested: about 300 ng/mL)
no binding (tested: about 300 ng/mL),"55A1 antibody (antibody, V domains shown, Mouse hybridoma antibody, IgG2a) VH: QIHLVQSGPELKKPGETVKISCKASGYTFTNYGMNWVKQAPGKGLKWMGWINTYSGVPTYAGDFKGRFAFSLETSASTAYLQINNLKNEDTATYFCARRGYYGRRYFDVWGTGTTVTVSS VL: DIVLTQSPASLAVSLGQRATISCKASQSVDYDVDSYMHWYQQKPGQPPKLLIYAASNLASGIPARFSGGGSGTDFTLNIHPVEEEDVATYYCQQTIEDPPTFGGGTKLEIK",–
no binding (tested: about 300 ng/mL),"14A1 antibody (antibody, V domains shown, Mouse hybridoma antibody, IgG1) VH: QIQLVQSGPELKKPGETVKISCKASGYTFTNYGMNWVKQAPGKGLKWMGWINTYSGVPTYADDFKGRFAFSLETSASTAYLQINNFKNEDTATYFCARFSYYGRHYFDYWGQGTALTASS VL: DIVLTQSPASLAVSLGQRATISCKASQSVDYDGDSYMNWYQQKPGQPPKLLIYAASNLKSGIPARFSGSGSGTDFTLNIHPVEEEDAATYYCQQTTDDPPWTFGGGTKLEIK",–
no binding (tested: about 300 ng/mL),"2D5 antibody (antibody, V domains shown, Mouse hybridoma antibody, IgG2a) VH: QIQLVQSGPELKKPGETVKISCKASGYTFTNYGMNWVKQAPGKGLKWMGWINTYSGVPTYTDDFKGRFAFSLETSASTAFLQINNLKNEDTATYFCARFSYYGRHYFDYWGQGTTLTVSS VL: not shown",–
no binding (tested: about 300 ng/mL),"7D4 antibody (antibody, V domains shown, Mouse hybridoma antibody, IgG1) VH: QIQLVQSGPELKKPGETVKISCKASGYTFTNYGMNWVKQAPGKDLKWMGWINTYSGVPTYADDFKGRFAFSLETSASTAYLQINNLKNEDTATYFCARFSYYGRHYFDYWGQGTTLTVSS VL: DIVLTQSPASLAVSLGQRATISCKASQSVDYDGDSYMNWYQQKPGQPPQLLIYAASNLGSGIPARFSGSGSGTDFTLNIHPVEEEDAATYYCHQSTDDPPWTFGGGTKLEIK",–
no binding (tested: about 300 ng/mL),"23H8 antibody (antibody, V domains shown, Mouse hybridoma antibody, IgG2a) VH: EVQLQQSGPELLKPGASVKISCKASGYTFTDNTIHWVKQSHGKSLEWIGHINPYYGGTNNNEKFKDKATLTVDKSSSTAYMELRSLTSEDSAIYYCARKGIYYSSPFDYWGQGTTLTVSS VL: DIQMTQTTSSLSASLGDRVTISCRASQDINNYLNWYQQKPDGTVKLLISYTSKLHSGVPSRFSGSGSGTDYSLTISNLEREDFATYFCQQGNTLPFTFGSGTNLEIK",–
no binding (tested: about 300 ng/mL),"53A11 antibody (antibody, V domains shown, Mouse hybridoma antibody, IgG2a) VH: EVQLQQSGPELLKPGASVKISCKASGYTFTDYTMHWVKQSHGKSLEWIGGINPYYGGTTYNEKFKDKATLTVDKSSSTAYMELRSLTSEDSAVYYCAKGDYYGGSYNYWGQGTTLTVSS VL: DIVLTQSLATLSVTPGDSVSLSCRASQDISNSLHWYQQKSHESPRLLIKYASQSISGIPSRFSGSGSGTDFTLSINSVETEDFGMYFCQQSNSWPYTFGGGTKLEIK",–
